Values belong to the binder of their own block, whether it stands above or below them.
Columns and labels:
[1] = target: T1, human hepatocyte growth factor (HGF) (human, UniProt P14210 32-728); test: BIAcore 3000, equilibrium/solution method: antibody (0.01-50 nM) incubated with human HGF (0.05 nM and 1 nM), free HGF measured on a chip carrying the same antibody
T1 construct: Recombinant protein; The mature protein is a heterodimer of the alpha and beta subunits; also called human HGF; full length HGF
Description: That method was performed with a BIAcore®3000 (Biacore, Inc., Piscataway, N.J.) using PBS with 0.005% P20 surfactant (BIAcore, Inc. Piscataway, N.J.) as running buffer. The four antibodies to HGF were separately immobilized to research grade CM5 sensor chips (Biacore, Inc. Piscataway, N.J.) via primary amine groups using an Amine Coupling Kit (Biacore, Inc. Piscataway, N.J.) following the manufacturer's instructions.
In separate assays, each of the four antibodies to HGF, over a range of concentrations (from 0.01 nM to 50 nM) was separately incubated with each of two different concentrations (0.05 nM and 1 nM) of human HGF in PBS with 0.005% P-20 and 0.1 mg/mL BSA at room temperature for at least six hours. Each of those samples was then injected over a surface of a CM5 sensor chip onto which the same antibody to HGF had been immobilized. The binding signal obtained was proportional to the free HGF in solution. The dissociation equilibrium constant (KD) was obtained from nonlinear regression analysis of the competition curves using a dual-curve one-site homogeneous binding model (KinExA software, Sapidyne Instruments Inc., Boise Id.).

mouse HGF = target: T2, mouse HGF (mouse, UniProt Q08048 33-728); test: FACS bead assay: antibody incubated with the avidin fusion of mouse HGF, captured on biotin-coated beads; FITC anti-avidin (x) against PE goat anti-human F(ab')2 (y)
T2 construct: also called recombinant mouse HGF; mHGF
Description: After incubation, the fusion proteins in each sample were separately captured using biotin-coated beads (Spherotech Inc., Libertyville, Ill., Cat # TP-60-5). The resulting bead-protein complexes were labeled by adding FITC labeled anti-avidin antibody (Vector Lab, Burlingame, Calif., Cat. # SP-2040). The presence of antibodies to HGF was determined by adding phycoerythrin (PE) labeled goat anti-human F(ab′)2 antibody (Southern Biotech Associates, Inc, Birmingham, Ala., Cat #2043-09).
Those samples were then subjected to Fluorescence Activated Cell Sorter (FACS) analysis. Bead complexes labeled by FITC (which indicated the presence of avidin) and/or PE (which indicated the presence of antibody to HGF) were detected on a Becton Dickinson Bioscience FACScan (BD, Franklin Lakes, N.J.).

[2] = target: T1, human hepatocyte growth factor (HGF); test: neutralization ELISA (right table): inhibition of the binding of soluble Met (2 nM) to plate-coated HGF, detected with biotinylated anti-cMetR antibody and Eu-streptavidin; column head 'IC50 IP (nM)'
Description: A neutralization ELISA assay was developed to assess whether the antibodies discussed in Example 6 could interrupt Met-HGF binding. Delphia 96-well plates (Cat#: AAAND-0001, Wallac Inc., Gaithersburg, Md.) were coated with HGF by adding 100 μl of HGF at 6.25 μg/ml per well. The plates were incubated at 37° C. for 1 hour or at 4° C. overnight. The plates were then blocked with 5% BSA (Cat#50-61-00, KPL, Gaithersburg, Md.) in PBS containing 0.1% Tween 20 for 1 hour at room temperature with shaking.
Test samples were prepared by separately mixing soluble Met (2 nM, 0.256 μg/ml) with different concentrations of a particular antibody to HGF being tested. The concentrations tested were: 667 nM, 223 nM, 74.1 nM, 24.7 nM, 8.2 nM, 2.7 nM, 0.91 nM, 0.30 nM, 0.10 nM, and 0.034 nM. A volume of 100 μl of a test sample was added to each well of the plates. The plates were then incubated at 4° C. overnight and then washed 4 times with PBS containing 0.1% Tween 20. Next, 100 μl per well of Biotinylated anti-cMetR antibody (Cat#: BAF358, R&D Systems Inc., Minneapolis, Minn.) at 2 μg/ml, was added. […] The plates were then incubated for 2 hours with shaking, and were washed 4 times with PBS containing 0.1% Tween 20. Eu-streptavidin (1:1000 dilution in Assay buffer) (Cat#1244-360, Wallac Inc., Gaithersburg, Md.) was added and the plates were shaken at room temperature for 1 hour. The plates were then washed 4 times with PBS containing 0.1% Tween 20. Next, 100 μl of enhancement buffer (Wallac Inc., Cat#: 1244-105, Gaithersburg, Md.) was added. After at least for 5 minutes, the plates were read using Europium method on Victor 2 (1420 Multilabel Counter, Wallac Inc., Gaithersburg, Md.).
Percent inhibition of Met binding to HGF (i.e. neutralization) was calculated and IC₅₀ values were determined using the 4 parameter fit equation Excelfit, Version 2.0.6, (Microsoft Inc, Seattle, Wash.). In the presence of the antibodies to HGF discussed in Examples 6, Met binding to HGF was neutralized.

T1 sequence (P14210 32-728 limits assumed): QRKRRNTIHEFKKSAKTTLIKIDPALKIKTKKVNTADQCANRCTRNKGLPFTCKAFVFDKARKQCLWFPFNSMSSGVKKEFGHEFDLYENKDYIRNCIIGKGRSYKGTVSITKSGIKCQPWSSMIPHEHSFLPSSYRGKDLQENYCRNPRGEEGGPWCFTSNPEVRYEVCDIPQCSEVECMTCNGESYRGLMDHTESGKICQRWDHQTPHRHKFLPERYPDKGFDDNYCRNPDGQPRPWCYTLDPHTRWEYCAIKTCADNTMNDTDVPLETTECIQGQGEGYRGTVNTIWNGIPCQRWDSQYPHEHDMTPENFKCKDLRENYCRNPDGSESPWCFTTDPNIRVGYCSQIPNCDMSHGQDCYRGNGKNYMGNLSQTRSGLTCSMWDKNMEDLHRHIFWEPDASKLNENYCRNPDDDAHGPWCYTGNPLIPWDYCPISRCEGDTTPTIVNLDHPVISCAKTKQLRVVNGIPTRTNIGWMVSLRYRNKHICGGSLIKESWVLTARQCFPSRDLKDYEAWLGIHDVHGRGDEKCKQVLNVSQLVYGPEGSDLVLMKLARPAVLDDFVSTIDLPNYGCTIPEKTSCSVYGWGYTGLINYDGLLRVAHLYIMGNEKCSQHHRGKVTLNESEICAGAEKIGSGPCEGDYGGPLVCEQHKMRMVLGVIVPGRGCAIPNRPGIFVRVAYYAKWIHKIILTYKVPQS
T2 sequence (Q08048 33-728 limits assumed): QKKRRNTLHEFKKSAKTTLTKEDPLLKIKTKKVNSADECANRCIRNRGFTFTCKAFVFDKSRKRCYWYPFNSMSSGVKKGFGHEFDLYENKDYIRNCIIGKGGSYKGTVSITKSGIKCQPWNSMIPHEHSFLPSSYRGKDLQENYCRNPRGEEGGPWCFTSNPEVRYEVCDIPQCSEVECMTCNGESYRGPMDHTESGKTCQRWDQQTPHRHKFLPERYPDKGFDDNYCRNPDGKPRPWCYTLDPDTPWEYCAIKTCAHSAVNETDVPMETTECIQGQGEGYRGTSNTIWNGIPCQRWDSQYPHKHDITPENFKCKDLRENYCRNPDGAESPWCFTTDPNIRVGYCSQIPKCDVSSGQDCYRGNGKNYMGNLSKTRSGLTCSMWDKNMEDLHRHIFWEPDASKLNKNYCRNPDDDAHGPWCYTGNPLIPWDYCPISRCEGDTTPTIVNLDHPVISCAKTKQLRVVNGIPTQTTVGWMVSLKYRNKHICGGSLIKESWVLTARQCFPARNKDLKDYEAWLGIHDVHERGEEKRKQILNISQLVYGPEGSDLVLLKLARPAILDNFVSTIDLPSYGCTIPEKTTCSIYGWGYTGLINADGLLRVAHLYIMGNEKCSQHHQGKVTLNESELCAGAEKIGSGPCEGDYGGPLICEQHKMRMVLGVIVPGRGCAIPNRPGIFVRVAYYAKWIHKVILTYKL

Kd [1]: 0.054 nM
binding result (mouse HGF): no binding
IC50 [2]: 0.52 nM
B1: antibody 2.12.1 (antibody, human IgG2, kappa, V domains shown)
VH: QVQLQESGPGLVKPSETLSLTCTVSGGSISIYYWSWIRQPPGKGLEWIGYVYYSGSTNYNPSLKSRVTISVDTSKNQFSLKLNSVTAADTAVYYCARGGYDFWSGYFDYWGQGTLVTVSS
VL: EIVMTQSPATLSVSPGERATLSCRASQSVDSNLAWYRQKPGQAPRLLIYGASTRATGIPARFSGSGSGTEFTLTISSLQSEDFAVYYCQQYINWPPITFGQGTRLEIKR

Kd [1]: < 0.01 nM
binding result (mouse HGF): no binding
B2: antibody 2.4.4 (antibody, human IgG2, kappa, V domains shown)
VH: QVQLKESGPGLVKPSQTLSLTCTVSGGSISSGVYYWSWIRQHPGKGLEWIGYFYYSGNTYHNPSLKSRVTISVDTSKNQFSLKLSSVTAADTAVYYCARDRSGYDHPDAFDIWGQGTMVTVSS
VL: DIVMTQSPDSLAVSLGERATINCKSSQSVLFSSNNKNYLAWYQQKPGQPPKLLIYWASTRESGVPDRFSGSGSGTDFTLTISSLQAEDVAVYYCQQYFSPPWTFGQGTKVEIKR
notes: also called FITC-labeled antibody 2.4.4
